± gives the standard deviation of the averaged measurements.
B1: library; a variant is named by its letters at N, in order (parent)
chain: GCUGUCACCGGUGUAUUACCCUAGUGGUCGACCGGUCUGAUGAGUCUNNNNNNAGACGAAACAGC

What was measured:
hypoxanthine [1] = variants of: B1; test: FACS-Seq fitted mean relative fluorescence mCherry/BFP without ligand (log10 relative fluorescence); ligand: hypoxanthine (xanthine aptamer); higher = higher reporter protein expression; conditions: HEK293T, ligand present: no
Outline: (§1)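 Fluorescence comes from a normal fit to bin counts, normalized against controls. HEK293T libraries lentivirally given a ribozyme-switch mCherry reporter and an EF1α-BFP marker were enriched, incubated 48 h with or without ligand, and sorted by mCherry/BFP into 6 bins. Bin genomic DNA was PCR-amplified, barcoded and sequenced on MiSeq. The log10(mCherry/BFP) mean was scaled to five spiked-in control ribozymes.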

hypoxanthine [2] = variants of: B1; test: normalized RNA/DNA level with ligand (relative to sTRSVctl = 100) (log10 (% of sTRSVctl)); ligand: hypoxanthine (xanthine aptamer); higher = less ribozyme self-cleavage, higher mRNA level; conditions: ligand concentration (+) RNA-Seq: 5 mM, HEK293T, reporter: mCherry (pCS4076), ligand present: yes
Outline: (§2)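 For each 6-well well, 4 µg of library plasmid encoding mCherry-linked ribozyme switches, or eGFP-linked ones in some ligand experiments, was transfected into HEK293T. Any ligand was added 1 h before transfection, and RNA was extracted with EDTA 72 h after it, then reverse-transcribed, amplified, barcoded and sequenced. RNA level was obtained by dividing RNA reads by DNA reads, normalizing to a spiked-in non-cleaving sequence or to the top sequences, then scaling and log-transforming. The top set was 25 sequences, scaling was ×100 with log10, and ≥100 DNA reads were required.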

hypoxanthine [3] = variants of: B1; test: normalized RNA/DNA level without ligand (relative to sTRSVctl = 100) (log10 (% of sTRSVctl)); ligand: hypoxanthine (xanthine aptamer); higher = less ribozyme self-cleavage, higher mRNA level; conditions: HEK293T, reporter: mCherry (pCS4076), ligand present: no
Outline: as §2

hypoxanthine [4] = variants of: B1; test: FACS-Seq fitted mean relative fluorescence mCherry/BFP with ligand (log10 relative fluorescence); ligand: hypoxanthine (xanthine aptamer); ligand concentration (+) FACS-Seq: 5 mM; higher = higher reporter protein expression; conditions: HEK293T, ligand present: yes
Outline: as §1

| Variant | FACS-Seq fitted mean (log10) (hypoxanthine [1]) | normalized RNA/DNA level with ligand (log10) (hypoxanthine [2]) | normalized RNA/DNA level without ligand (log10) (hypoxanthine [3]) | FACS-Seq fitted mean (log10) (hypoxanthine [4]) |
| --- | --- | --- | --- | --- |
| GUGCGU | 0.221 ± 0.019 | 1.972 ± 0.018 | 1.71 ± 0.044 | 0.479 ± 0.04 |
| GUGCGG | 0.103 ± 0.016 | 1.88 ± 0.033 | 1.38 ± 0.081 | 0.585 ± 0.033 |
| UUCUAA | 0.391 ± 0.23 | 1.961 ± 0.018 | 1.85 ± 0.077 | -0.13 ± 0.28 |
| GUGCUG | 0.44 ± 0.068 | 1.914 ± 0.019 | 1.58 ± 0.025 | 0.542 ± 0.054 |
| AUCGCC | 0.477 ± 0.12 | 1.95 ± 0.028 | 1.91 ± 0.034 | -0.391 ± 0.0099 |
| UUCCUG | -0.284 ± 0.019 | 1.93 ± 0.041 | 1.756 ± 0.0019 | -0.379 ± 0.12 |
| UUCAAU | -0.589 ± 0.025 | 1.937 ± 0.015 | 1.81 ± 0.024 | -0.1336 ± 0.00015 |
| AUCAGA | -0.0827 ± 0.0075 | 1.9287 ± 0.00064 | 1.828 ± 0.0044 | 0.00695 ± 0.085 |
| AUCAGG | 0.386 ± 0.072 | 1.87 ± 0.01 | 1.48 ± 0.061 | 0.617 ± 0.048 |
| AUCAGU | 0.169 ± 0.016 | 1.885 ± 0.012 | 1.772 ± 0.0019 | 0.476 ± 0.069 |
| UUGACA | 0.459 ± 0.015 | 1.95 ± 0.046 | 1.87 ± 0.026 | 0.491 ± 0.048 |
| UUGACG | 0.486 ± 0.025 | 1.93 ± 0.057 | 1.831 ± 0.0085 | 0.5104 ± 0.00062 |
| AUCAUU | 0.581 ± 0.01 | 1.96 ± 0.037 | 1.96 ± 0.029 | 0.691 ± 0.072 |
| AUCAUA | 0.467 ± 0.023 | 1.92 ± 0.035 | 1.798 ± 0.0029 | 0.562 ± 0.061 |
| AUCCAU | 0.676 ± 0.075 | 1.96 ± 0.015 | 1.86 ± 0.032 | 0.6901 ± 0.0038 |
| AUCCAG | 0.222 ± 0.062 | 1.92 ± 0.034 | 1.55 ± 0.096 | 0.446 ± 0.052 |
| AUCCAA | 0.618 ± 0.059 | 1.923 ± 0.016 | 1.79 ± 0.07 | 0.708 ± 0.06 |
| GUCGGA | -0.358 ± 0.082 | 1.98 ± 0.055 | 1.79 ± 0.027 | -0.116 ± 0.049 |

From the supplement of paper PMC6757056
